Laboratory results: PMC3102279

How the values were obtained:
[1] = substrate: Nc1ncnc2c1ncn2[C@@H]1O[C@H](COP(=O)(O)OP(=O)(O)OP(=O)(O)O)[C@@H](O)[C@H]1O; assay: purified protein; conditions: Mg2+
[2] = substrate: Nc1ncnc2c1ncn2[C@@H]1O[C@H](COP(=O)(O)OP(=O)(O)OP(=O)(O)O)[C@@H](O)[C@H]1O; assay: purified protein; format: biochemical, Homo sapiens; conditions: Mg2+

B1: Aurora B (Homo sapiens) (protein)
chain: SNVQPTAAPGQKVMENSSGTPDILTRHFTIDDFEIGRPLGKGKFGNVYLAREKKSHFIVALKVLFKSQIEKEGVEHQLRREIEIQAHLHHPNILRLYNYFYDRRRIYLILEYAPRGELYKELQKSCTFDEQRTATIMEELADALMYCHGKKVIHRDIKPENLLLGLKGELKIADFGWSVHAPSLRRKTMCGTLDYLPPEMIEGRMHNEKVDLWCIGVLCYELLVGNPPFESASHNETYRRIVKVDLKFPASVPMGAQDLISKLLRHNPSERLPLAQVSAHPWVRANSRRVLPPSALQSVA
Km [1]: 16.5 µM

B2: Mps1 (Homo sapiens) (protein)
chain: MESEDLSGRELTIDSIMNKVRDIKNKFKNEDLTDELSLNKISADTTDNSGTVNQIMMMANNPEDWLSLLLKLEKNSVPLSDALLNKLIGRYSQAIEALPPDKYGQNESFARIQVRFAELKAIQEPDDARDYFQMARANCKKFAFVHISFAQFELSQGNVKKSKQLLQKAVERGAVPLEMLEIALRNLNLQKKQLLSEEEKKNLSASTVLTAQESFSGSLGHLQNRNNSCDSRGQTTKARFLYGENMPPQDAEIGYRNSLRQTNKTKQSCPFGRVPVNLLNSPDCDVKTDDSVVPCFMKRQTSRSECRDLVVPGSKPSGNDSCELRNLKSVQNSHFKEPLVSDEKSSELIITDSITLKNKTESSLLAKLEETKEYQEPEVPESNQKQWQSKRKSECINQNPAASSNHWQIPELARKVNTEQKHTTFEQPVFSVSKQSPPISTSKWFDPKSICKTPSSNTLDDYMSCFRTPVVKNDFPPACQLSTPYGQPACFQQQQHQILATPLQNLQVLASSSANECISVKGRIYSILKQIGSGGSSKVFQVLNEKKQIYAIKYVNLEEADNQTLDSYRNEIAYLNKLQQHSDKIIRLYDYEITDQYIYMVMECGNIDLNSWLKKKKSIDPWERKSYWKNMLEAVHTIHQHGIVHSDLKPANFLIVDGMLKLIDFGIANQMQPDTTSVVKDSQVGTVNYMPPEAIKDMSSSRENGKSKSKISPKSDVWSLGCILYYMTYGKTPFQQIINQISKLHAIIDPNHEIEFPDIPEKDLQDVLKCCLKRDPKQRISIPELLAHPYVQIQTHPVNQMAKGTTEEMKYVLGQLVGLNSPNSILKAAKTLYEHYSGGESHNSSSSKTFEKKRGKK
Km [2]: 4.9 µM
